Measured values taken from patent US20050032696A1.

Biological target: MEF2C (pcDNAMEF2C, mouse MEF2C cDNA) (mouse) (UniProt Q8CFN5)
Test: cell-based or functional assay

Sequence of MEF2C (pcDNAMEF2C, mouse MEF2C cDNA) (mouse) (Q8CFN5 whole entry): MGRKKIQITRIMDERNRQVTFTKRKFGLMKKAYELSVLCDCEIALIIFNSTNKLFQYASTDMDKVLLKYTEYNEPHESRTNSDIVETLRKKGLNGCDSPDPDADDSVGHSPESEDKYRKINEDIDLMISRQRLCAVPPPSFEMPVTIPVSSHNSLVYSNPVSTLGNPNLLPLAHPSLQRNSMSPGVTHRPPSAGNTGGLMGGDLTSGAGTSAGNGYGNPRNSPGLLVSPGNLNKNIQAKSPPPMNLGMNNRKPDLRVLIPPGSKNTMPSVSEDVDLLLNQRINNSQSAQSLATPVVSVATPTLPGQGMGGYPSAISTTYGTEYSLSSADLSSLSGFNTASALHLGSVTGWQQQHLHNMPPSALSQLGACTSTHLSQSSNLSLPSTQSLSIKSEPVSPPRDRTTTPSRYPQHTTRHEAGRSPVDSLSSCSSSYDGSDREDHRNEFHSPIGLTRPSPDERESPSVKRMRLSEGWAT

Substance: hMusTRD1α1944aa (pcDNA3.1hMusTRD1α1944aamyc/his) (from UniProt Q9UHL9 1-959)
- MEF2C-mediated transcriptional activation of the hTnIslow USE (luciferase reporter, co-transfected C2C12 cells): 3 fold
